# Reference: patent US20260191982A1 (GENOME, published 2026)
# Where “and” joins values, the source holds several entries; their conditions need not be identical. Equal entries are not always repeated.
# T1: human BCAM recombinant protein (SinoBiological, USA) (human, UniProt P50895 32-547)
# T1 construct: Bought protein; In the sandwich ELISA it was captured by a coated anti-His antibody, which implies a His tag; also called recombinant human BCAM protein; basal cell adhesion molecule
# T1 sequence (looked up): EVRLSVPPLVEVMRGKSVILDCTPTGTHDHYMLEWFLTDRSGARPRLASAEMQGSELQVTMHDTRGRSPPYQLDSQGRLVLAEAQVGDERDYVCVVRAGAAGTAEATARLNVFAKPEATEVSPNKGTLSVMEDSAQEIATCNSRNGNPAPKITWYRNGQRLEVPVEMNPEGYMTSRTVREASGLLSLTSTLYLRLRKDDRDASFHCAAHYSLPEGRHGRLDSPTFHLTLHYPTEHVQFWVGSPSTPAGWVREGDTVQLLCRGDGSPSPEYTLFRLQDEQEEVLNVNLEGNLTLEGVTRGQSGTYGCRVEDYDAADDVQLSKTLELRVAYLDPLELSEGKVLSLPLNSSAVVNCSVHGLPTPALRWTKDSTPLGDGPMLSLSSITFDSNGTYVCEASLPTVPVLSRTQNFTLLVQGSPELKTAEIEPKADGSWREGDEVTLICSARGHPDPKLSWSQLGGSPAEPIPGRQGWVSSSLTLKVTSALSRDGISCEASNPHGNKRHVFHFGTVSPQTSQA
# T2: human BCAM overexpressed on HEK293FT cells (HEK293FT/hBCAM) (human, UniProt P50895 32-628)
# T2 construct: whole, on cells; also called HEK293FT/hBCAM cells; BCAM-overexpressing HEK293 cells
# T2 sequence (looked up): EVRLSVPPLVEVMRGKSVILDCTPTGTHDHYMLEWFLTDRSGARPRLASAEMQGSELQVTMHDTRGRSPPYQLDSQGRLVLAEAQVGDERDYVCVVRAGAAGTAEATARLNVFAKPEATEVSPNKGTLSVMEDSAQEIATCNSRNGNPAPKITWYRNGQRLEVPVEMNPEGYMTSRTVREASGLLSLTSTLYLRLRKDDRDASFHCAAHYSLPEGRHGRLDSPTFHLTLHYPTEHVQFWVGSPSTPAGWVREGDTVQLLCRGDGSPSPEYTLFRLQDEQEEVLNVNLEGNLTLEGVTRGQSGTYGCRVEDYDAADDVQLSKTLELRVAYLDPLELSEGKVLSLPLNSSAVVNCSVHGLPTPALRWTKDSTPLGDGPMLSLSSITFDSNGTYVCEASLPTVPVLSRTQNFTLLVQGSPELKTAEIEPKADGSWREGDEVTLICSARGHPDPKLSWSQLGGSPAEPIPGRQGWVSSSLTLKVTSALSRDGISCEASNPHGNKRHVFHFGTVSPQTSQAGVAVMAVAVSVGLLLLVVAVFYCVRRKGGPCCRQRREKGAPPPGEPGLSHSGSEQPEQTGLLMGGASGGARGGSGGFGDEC
# Key:
# [1] = target: T1, human BCAM recombinant protein …; assay: sandwich ELISA, human BCAM captured by coated anti-His antibody, anti-human IgG Fc-HRP detection
# Procedure: The binding affinity of Ab1 and Ab3 to human BCAM recombinant protein was evaluated using sandwich ELISA (Enzyme-Linked Immunosorbent Assay) method. Anti-His antibody (Biolegend, USA) diluted in PBS to 4 μg/mL was added to 96-well plate (ThermoFisher Scientific, USA) and incubated overnight at 4° C. Next day, solution containing anti-his antibody was removed, and the plate was washed 3 times with 300 μL of PBS-T (0.1% Tween-20 in PBS). The plate coated with anti-his antibody was blocked with 300 μL of 3% skim milk blocking buffer for 1 hr at room temperature. Human BCAM (SinoBiological, USA) diluted in blocking buffer to 25 nM, and 100 μL of prepared proteins was added to 96-well plate and incubated for 1 hr at room temperature. The plate was washed 3 times with 300 μL of PBS-T, and 100 μL of Ab1 and Ab3 (6.4 pM~500 nM, serial 5-fold dilution, 8 points) diluted with blocking buffer was added to each well and incubated for 1 hr at room temperature. […] The absorbance (Optical density at […]) was measured at 450 nm using Synergy H1 (BioTek, Winooski, VT). The graphs were generated as sigmoidal dose-response curves and EC₅₀ values were determined by nonlinear regression with a three-parameter logistic equation using GraphPad Prism software (GraphPad Software Inc., San Diego, CA, USA).
# [2] = target: T2, human BCAM overexpressed on HEK293FT …; assay: flow cytometry on HEK293FT cells overexpressing human BCAM, geometric MFI
# Procedure: The binding affinity of Ab1, Ab2 and Ab3 to HEK293FT cells overexpressing human BCAM (HEK293FT/hBCAM) was evaluated by flow cytometry analysis. HEK293FT cells (3.0×10⁶) were seeded to 10 cm cell culture dish and incubated for […], 5% CO₂ incubator. The next day, jetPRIME transfection reagent (20 μL) and human BCAM expression plasmid (10 μg) prepared in jetPRIME transfection buffer (200 μL) were mixed and incubated for 10 min at room temperature. The mixture was added to HEK293FT cells drop-wisely and incubated for 4 hr at 37° C., 5% CO₂ incubator. After 4 hr, the mixture from HEK293FT cells was replaced with fresh complete media and incubated for overnight. HEK293FT/hBCAM cells prepared at 1.0×10⁵ cells/100 μL in FACS buffer. The 100 μL of Ab1, Ab2 (3 pM~56 nM, serial 3-fold dilution, 10 points) and Ab3 (1.524 pM~30 nM, serial 3-fold dilution, 10 points), and HG4K IgG4 (SinoBiological, USA) and HG1K IgG1 (SinoBiological, USA) diluted with FACS buffer was added to cells and incubated for 30 min at 4° C. The cells were washed twice with 200 μL of FACS buffer, and then 1 μg/mL of secondary antibody (AlexaFlour® 647 AffiniPure Goat Anti-Human IgG (H+L), JacksonImmunoResearch, USA) diluted with FACS buffer was added to cells and incubated for 30 min at 4° C. in the dark. After washing twice with 200 μL of FACS buffer, and 7-AAD diluted with FACS buffer (1:100) was added to cells and transferred to FACS tubes for analysis. At least 1.0×10⁴ live cells per sample were read using FACSCantoII (BD, USA). The geometric mean fluorescence intensity for assessing the Ab1, Ab2 and Ab3 binding to hBCAM on HEK293FT/hBCAM cells was measured. The graphs were generated as sigmoidal dose-response curves and EC₅₀ values were determined by nonlinear regression with a four-parameter logistic equation using GraphPad Prism software (GraphPad Software Inc., San Diego, CA, USA). […] See FIGS. 20a and 20b and Table 1D and 1E.
# [3] = target: T1, human BCAM recombinant protein …; assay: indirect ELISA, human BCAM coated on plate at 25 nM, anti-human IgG Fc-HRP detection
# Procedure: The binding affinity of Ab1 and Ab2 to human BCAM recombinant protein was evaluated using an indirect ELISA (Enzyme-Linked Immunosorbent Assay) method. Human BCAM (SinoBiological, USA) diluted in PBS to 25 nM, and 50 μL of prepared proteins was added to 96-well half plate (Costar, USA) and incubated overnight at 4° C. Next day, solution containing human BCAM was removed, and the plate was washed 3 times with 150 μL of PBS-T (0.1% Tween-20 in PBS). The plate coated with human BCAM was blocked with 150 μL of 3% BSA blocking buffer for 1 hr at 37° C. Blocking buffer was removed, and 50 μL of Ab1 and Ab2 (6 pM~1 μM, serial 3-fold dilution, 12 points), and HG4K IgG4 (SinoBiological, USA) and HG1K IgG1 (SinoBiological, USA) diluted with blocking buffer was added to each well and incubated for 2 hr at 37° C. The plate was washed 3 times with 150 μL of PBS-T, and secondary antibody (HRP-conjugated anti-human IgG Fc antibody; ThermoFisher Scientific, USA) diluted with blocking buffer (1:100,000) was added to each well and incubated for 1 hr at 37° C. […] The absorbance (Optical density at 450 nm, OD₄₅₀) was measured at 450 nm using Synergy H1 (BioTek, Winooski, VT). The graphs were generated as sigmoidal dose-response curves and EC₅₀ values were determined by nonlinear regression with a four-parameter logistic equation using GraphPad Prism software (GraphPad Software Inc., San Diego, CA, USA).
EC50 [1],EC50 [2],EC50 [3] [nM],Binder
1.28 nM and 0.192 µg/mL,0.184 nM and 0.027 µg/mL,0.112,"Ab1 (anti-BCAM antibody, human IgG4 S228P isotype) (antibody, human IgG4 S228P isotype, lambda light chain; expressed in ExpiCHO-S cells) heavy: not shown light: LPVLTQPPSASGSPGQSVTISCTGTSSDVGGYNYVSWYQQHPGKAPKLMIYEVNKRPSGVPDRFSGSKSGNTASLTVSGLQAEDEADYYCCSYAGSNNYVFGTGTKVTVLGQPKAAPSVTLFPPSSEELQANKATLVCLISDFYPGAVTVAWKADSSPVKAGVETTTPSKQSNNKYAASSYLSLTPEQWKSHRSYSCQVTHEGSTVEKTVAPTECS"
,0.232 nM and 0.034 µg/mL,0.078,"Ab2 (anti-BCAM antibody, human IgG1 isotype) (antibody, human IgG1 isotype) heavy: not shown light: LPVLTQPPSASGSPGQSVTISCTGTSSDVGGYNYVSWYQQHPGKAPKLMIYEVNKRPSGVPDRFSGSKSGNTASLTVSGLQAEDEADYYCCSYAGSNNYVFGTGTKVTVLGQPKAAPSVTLFPPSSEELQANKATLVCLISDFYPGAVTVAWKADSSPVKAGVETTTPSKQSNNKYAASSYLSLTPEQWKSHRSYSCQVTHEGSTVEKTVAPTECS"
1.31 nM and 0.197 µg/mL,0.167 nM and 0.025 µg/mL,,"Ab3 (anti-BCAM antibody, human IgG1 LALA isotype) (antibody, human IgG1 LALA isotype) heavy: not shown light: LPVLTQPPSASGSPGQSVTISCTGTSSDVGGYNYVSWYQQHPGKAPKLMIYEVNKRPSGVPDRFSGSKSGNTASLTVSGLQAEDEADYYCCSYAGSNNYVFGTGTKVTVLGQPKAAPSVTLFPPSSEELQANKATLVCLISDFYPGAVTVAWKADSSPVKAGVETTTPSKQSNNKYAASSYLSLTPEQWKSHRSYSCQVTHEGSTVEKTVAPTECS"
